The source of these data is patent publication US20090068224A1, “METHOD TO IDENTIFY POLYPEPTIDE TOLL-LIKE RECEPTOR (TLR) LIGANDS” (VAXINNATE CORPORATION, priority 2005, published 2009).

In assay [1] the target is human TLR2 and human CD14 (293.hTLR2.hCD14 cells) (Homo sapiens, UniProt O60603). The assay can be described thus: Biopanning of pooled 10, 15 and 20 amino acid random peptide phage display libraries, sequencing of enriched clones. It counts as binding. To be noted: percentage of all clones sequenced having given peptide sequence; 96 clones picked after 4 rounds of biopanning, TLRlo parental HEK293, TLRhi 293.hTLR2.hCD14. Here is the method: (§1) Screening of phage display libraries by biopanning: Phage display libraries are screened for peptide TLR ligands according to the following procedure. The phage display library is incubated on an in vitro cultured monolayer of cells that express minimal amounts of the TLR of interest (TLR^lo) in order to reduce non-specific binding, and then transferred to an in vitro suspension culture of cells expressing the relevant TLR (TLR^hi) to capture phage with binding specificity for the target TLR. After several washes with PBS to remove phage remaining unbound to the TLR^hi cells, TLR^hi cell-bound phages are harvested by centrifugation. The TLR^hi cells with bound phage are incubated with E. coli (strain BLT5615) in order to amplify the phage. This process is repeated three or more times to yield a phage population enriched for high affinity binding to the target TLR.
Libraries of phage displaying random peptides 10, 15 and 20 amino acids in length were constructed essentially as described for the pentameric random peptide library, except that the phosphorylated oligonucleotides used were 30, 45, and 60 nucleotides in length, respectively.
(§2) Sequencing of phage inserts: Individual phage clones from the enriched pool are isolated via plaque formation in E. coli. The DNA inserts of individual phage are amplified in PCR using the commercially available primers T7SelectUP (5′-GGAGCTGTCGTATTCCAGTC-3′; SEQ ID NO: 37; Novagen, catalog #70005) and T7SelectDOWN (5′-AACCCCTCAAGACCCGTTTA-3′; SEQ ID NO: 38; Novagen, catalog #70006). The PCR product DNA is purified using the QIAquick 96 PCR Purification Kit (Qiagen) and subjected to DNA sequencing using T7SelectUP and T7SelectDOWN primers.
We also constructed 10, 15, and 20 amino acid random peptide phage display libraries in T7SELECT phage. These phage display libraries were pooled in equal proportion and then screened by biopanning as described in Example 3. […] Of the 96 clones analyzed three peptide sequences were particularly abundant (see Table 8). […]

For assay [2], the target named is T1, TLR2 (Homo sapiens, UniProt O60603). Set-up: host or cells: monocytes and epithelial cells. Conditions: cited from earlier work.
Target sequence in this assay (O60603 21-784, species assumed): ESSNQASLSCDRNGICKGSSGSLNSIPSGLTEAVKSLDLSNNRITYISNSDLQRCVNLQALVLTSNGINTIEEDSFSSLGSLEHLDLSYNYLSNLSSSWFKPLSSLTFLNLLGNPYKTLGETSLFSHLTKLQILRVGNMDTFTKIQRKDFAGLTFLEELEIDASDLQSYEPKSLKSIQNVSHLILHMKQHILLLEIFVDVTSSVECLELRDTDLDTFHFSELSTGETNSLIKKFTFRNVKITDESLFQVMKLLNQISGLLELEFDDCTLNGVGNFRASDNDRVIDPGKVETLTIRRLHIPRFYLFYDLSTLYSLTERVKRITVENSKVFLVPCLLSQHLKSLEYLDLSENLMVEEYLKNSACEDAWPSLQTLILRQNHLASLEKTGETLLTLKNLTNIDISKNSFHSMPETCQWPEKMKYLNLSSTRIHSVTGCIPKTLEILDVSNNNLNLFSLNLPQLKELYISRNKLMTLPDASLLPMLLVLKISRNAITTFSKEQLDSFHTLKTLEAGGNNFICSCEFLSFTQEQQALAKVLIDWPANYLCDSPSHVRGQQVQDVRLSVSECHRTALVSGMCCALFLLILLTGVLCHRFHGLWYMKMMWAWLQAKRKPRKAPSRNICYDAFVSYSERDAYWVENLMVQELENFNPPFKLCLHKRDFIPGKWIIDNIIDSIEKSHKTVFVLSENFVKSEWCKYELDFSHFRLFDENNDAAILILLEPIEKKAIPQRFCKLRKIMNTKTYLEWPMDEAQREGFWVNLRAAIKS
The target of assay [3] is T1, TLR2. The assay can be described thus: NF-κB-dependent luciferase reporter assay, 293 vs 293.hTLR2 cells. It counts as cell-based. Conditions: synthetic peptide on parental 293 and 293.hTLR2 cells, four to five hours at 37° C. Here is the method:
NF-κB-dependent luciferase reporter assay: Parental 293 cells and 293.hTLR2 cells (see Example 1, above) were incubated with an aliquot of test peptide four to five hours at 37° C. NF-κB-dependent luciferase activity was measured using the Steady-Glo Luciferase Assay System by Promega (E2510), following the manufacturer's instructions. Luminescence was measured on a microplate luminometer (FARCyte, Amersham) and expressed as relative luminescence units (RLU) after subtracting the background reading obtained by exposing cells to the DMEM medium alone.
The biological activity of the TLR2-binding peptides isolated by the screening method was confirmed using the isolated peptides in an NF-κB-dependent reporter gene assay. For this assay, a synthetic monomer of the DPDSG motif (SEQ ID NO: 5), or a concatemerized copy (DPDSG)5, was incubated on parental HEK293 cells containing an NF-κB-dependent luciferase reporter construct (293) and on TLR2-overexpressing HEK293 cells containing an NF-κB-dependent luciferase reporter construct (293.hTLR2, see Example 1, above). Luciferase activity was then measured. […] Thus, the TLR2-binding peptides identified by the screening assay are functional peptide TLR2 ligands.
Target sequence in this assay (O60603 21-784): as the sequence (O60603 21-784, species assumed) above

For assay [4], the target named is human TLR2 (293.hTLR2 cells) (Homo sapiens, UniProt O60603). Description: Biopanning of pentameric random peptide phage display library, sequencing of enriched clones. Format: binding. Conditions: percentage of all clones sequenced (n = 109) having given peptide sequence; after 4 rounds of biopanning, TLRlo parental HEK293, TLRhi 293.hTLR2; peptides with identity to known microbial proteins. Here is the method: as §1
In each round of biopanning, the harvested phage that are bound to TLR^hi cells can be titred prior to amplification, amplified, and then titred again prior to initiation of the next cycle of biopanning. In this way, it is possible to determine the percent (%) of input phage in each cycle that are ultimately harvested from the TLR^hi cells. This calculation provides a round-by-round measure of enrichment within the phage display library for phage that display TLR-binding peptides.
Construction of random peptide libraries (RPL): A pentameric random peptide phage display library of T7SELECT phage was constructed essentially as described in Example 2. A pair of phosphorylated oligonucleotides with the sequence NNBNNBNNBNNBNNB (where N=A/G/C/T, B=G/C/T) flanked at the 5′ and 3′ ends by EcoRI and HindIII sites, respectively, was synthesized. Equimolar amounts of the oligonucleotides were annealed by heating for 5 min at 90° C. with gradual cooling to 25° C. The double stranded DNA was ligated to T7Select 10-3 bacteriophage vector (Novagen) that had been previously digested with EcoRI and HindIII. The ligation reactions were packaged in vitro and titred using the host E. coli strain […] that was grown in M9TB (Novagen), generating 2.5×10^7 clones, representing about 75% coverage of the library. The recombinant phage were subjected to several rounds of amplification to generate a total library of 1.35×10^12 phage, ensuring representation in excess of 5×10^4 fold for each clone in the library.
as §2
We constructed a pentameric random peptide phage display library in T7 phage. This phage library was then screened by biopanning as described in Example 3. For this screen, the TLR^lo cells were parental HEK293 (TLR2^−) cells, and the TLR^hi cells were HEK293 cells ectopically expressing human TLR2 (293.hTLR2, see Example 1, above). Phage bound to 293.hTLR2 cells were harvested, titred, and amplified prior to initiation of the each cycle of panning. In this way, it was possible to determine the % of input phage in each cycle that was ultimately harvested from the TLR2^hi cells.
After 4 rounds of biopanning, individual phage clones from the enriched pool were isolated via plaque formation in E. coli. […] phage clones were randomly picked for sequencing. Of the 109 individual clones examined the motif DPDSG was predominant (see Tables 6 and 7). […]

The target of assay [5] is T2, human TLR5 (human, UniProt O60602 21-858).
T2 construct: Expressed ectopically on HEK293 cells from the bought Invivogen plasmid pUNO-hTLR5 (293.hTLR5); also called hTLR5
The assay can be described thus: fliC-phage incubated on 293 and 293.hTLR5 cells; NF-κB luciferase read-out.

Chain of human TLR2 and human CD14 (293.hTLR2.hCD14 cells) (O60603 21-784): as the sequence (O60603 21-784, species assumed) above
T2 sequence (O60602 21-858 limits assumed): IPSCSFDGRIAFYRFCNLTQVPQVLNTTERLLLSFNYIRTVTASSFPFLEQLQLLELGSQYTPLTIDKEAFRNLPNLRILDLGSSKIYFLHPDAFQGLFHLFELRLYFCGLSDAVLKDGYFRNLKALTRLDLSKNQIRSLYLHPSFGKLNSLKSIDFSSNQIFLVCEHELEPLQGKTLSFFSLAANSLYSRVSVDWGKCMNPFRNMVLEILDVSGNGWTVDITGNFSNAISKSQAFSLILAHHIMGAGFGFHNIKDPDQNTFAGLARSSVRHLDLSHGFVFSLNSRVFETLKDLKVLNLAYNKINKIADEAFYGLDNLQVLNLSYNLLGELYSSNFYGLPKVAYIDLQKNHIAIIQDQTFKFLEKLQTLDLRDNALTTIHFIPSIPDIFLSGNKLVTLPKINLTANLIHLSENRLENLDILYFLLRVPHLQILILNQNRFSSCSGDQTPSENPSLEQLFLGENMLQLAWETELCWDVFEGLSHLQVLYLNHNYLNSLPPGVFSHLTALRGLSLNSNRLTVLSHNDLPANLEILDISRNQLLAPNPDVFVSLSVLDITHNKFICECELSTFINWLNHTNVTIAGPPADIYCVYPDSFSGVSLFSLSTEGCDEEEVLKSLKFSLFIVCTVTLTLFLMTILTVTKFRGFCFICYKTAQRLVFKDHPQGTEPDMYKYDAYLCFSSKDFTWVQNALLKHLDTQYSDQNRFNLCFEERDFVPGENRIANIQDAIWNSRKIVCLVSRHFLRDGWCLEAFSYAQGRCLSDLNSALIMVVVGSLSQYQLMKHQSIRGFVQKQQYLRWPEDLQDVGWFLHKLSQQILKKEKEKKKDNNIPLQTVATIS
Chain of human TLR2 (293.hTLR2 cells) (O60603 21-784): as the sequence (O60603 21-784, species assumed) above

“RWGYHLRDRKYKGVRSHKGVPR [peptide TLR2 ligand from phage display]”: in assay [1], the “% Abundance” value is reported as 19.4%.

In the case of “GRRGLCRGCRTRGRIKQLQSAHK [peptide TLR2 ligand from phage display]”, the “% Abundance” value in assay [1] stood at 16.1%.

Regarding “GLTTE (PEPTIDEGLTTE) [A to G substitution variant of ALTTE]”, the “antagonism of the wild-type peptide and full-length fimbrial protein” value in assay [2] (single amino acid substitution (A to G), Ogawa et al. 1995) is “antagonize the activity of the wild-type peptide and full-length protein”.

In the case of “DPDSG [peptide TLR2 ligand; also made as synthetic monomer]”, the “NF-κB-dependent luciferase reporter gene expression” value in assay [3] is listed as “activated luciferase reporter gene expression in a TLR2-dependent manner”. Further, the “% Abundance” value in assay [4] is 46.8%.

Regarding “KGGVGPVRRSSRLRRTTQPG [peptide TLR2 ligand from phage display]”, the “% Abundance” value in assay [1] worked out at 33.3%.

In the case of “(DPDSG)5 (DPDSGDPDSGDPDSGDPDSGDPDSG) [concatemerized copy of the DPDSG motif, solid phase synthesis]”, the “NF-κB-dependent luciferase reporter gene expression” value in assay [3] is reported as “activated luciferase reporter gene expression in a TLR2-dependent manner”.

For the molecule “ALTTE (PEPTIDEALTTE) [pentapeptide derived from fimbrial subunit protein, known TLR2 ligand]”, in assay [2] (Ogawa et al. 1995, 2002, Asai et al. 2001), the “activation of monocytes and epithelial cells via TLR2 signaling” value is “activate monocytes and epithelial cells via TLR2 signaling”.

B1: T7 phage displaying the E. coli flagellin (fliC) protein (ligand)
chain: MAQVINTNSLSLITQNNINKNQSALSSSIERLSSGLRINSAKDDAAGQAIANRFTSNIKGLTQAARNANDGISVAQTTEGALSEINNNLQRVRELTVQATTGTNSESDLSSIQDEIKSRLDEIDRVSGQTQFNGVNVLAKNGSMKIQVGANDNQTITIDLKQIDAKTLGLDGFSVKNNDTVTTSAPVTAFGATTTNNIKLTGITLSTEAATDTGGTNPASIEGVYTDNGNDYYAKITGGDNDGKYYAVTVANDGTVTMATGATANATVTDANTTKATTITSGGTPVQIDNTAGSATANLGAVSLVKLQDSKGNDTDTYALKDTNGNLYAADVNETTGAVSVKTITYTDSSGAASSPTAVKLGGDDGKTEVVDIDGKTYDSADLNGGNLQTGLTAGGEALTAVANGKTTDPLKALDDAIASVDKFRSSLGAVQNRLDSAVTNLNNTTTNLSEAQSRIQDADYATEVSNMSKAQIIQQAGNSVLAKANQVPQQVLSLLQG
notes: also called fliC phage; recombinant fliC-phage
Regarding B1, the binding result in assay [5] is listed as “binds”.
